Legend:
[1] = test system: SWR1C (SWR1 complex) (Saccharomyces cerevisiae (FLAG-tagged Swr1 strain)); test: fluorescence polarization; conditions: FP: 25 mM HEPES-KOH pH 7.6, 70 mM KCl, 0.2 mM EDTA, 5 mM MgCl2, 1 mM DTT, 0.1 mg/mL BSA, 10 nM nucleosome, 1 mM nucleotide where added, 20 min, room …
SWR1C [2] = target: T1, SWR1C (Saccharomyces cerevisiae, UniProt Q05471); test: fluorescence polarization of SWR1C binding to labelled H2A nucleosome with added nucleotide (no constant for the nucleotide); conditions: 1 mM ADP, 10 nM 77N4-ATTO 647N nucleosome, 5 mM MgCl2, pH 7.6, room temperature; indirect, nucleotide modulates nucleosome affinity
T1 construct: gene SWR1; native multi-subunit remodeler complex purified from a yeast strain with FLAG-tagged Swr1, eluted with 3x FLAG peptide; tag kept; with SWR1-complex protein 5; SWR1-complex protein 3; Vacuolar protein sorting-associated protein 71; Actin-like protein ARP6; Vacuolar protein sorting-associated protein 72; SWR1-complex protein 4; SWR1-complex protein 7; Protein AF-9 homolog; Bromodomain-containing factor 1; Actin-related protein 4; Actin; RuvB-like protein 1; RuvB-like protein 2

SWR1C [3] = target: T1, SWR1C; test: single-molecule FRET of H2A/H2B eviction from immobilised nucleosomes; type: biochemical; conditions: co-substrates yeast/Xenopus hybrid nucleosome 117N4, H2A.Z/H2B dimer, chaperone Chz1; 0-100 uM ATP; 4 mM MgCl2, pH 7.6, room temperature
[4] = target: SWR1C-nucleosome (SWR1C bound to the tethered biotinTEG-117N4-ATTO 647N H2A nucleosome) (S. cerevisiae | not stated (X. laevis H3.1 or H. sapiens H3.2 C110A made) | X. laevis | yeast (endogenous in the FLAG-tagged Swr1 yeast strain)) (UniProt P04911); test: single-molecule fluorescence colocalisation (TIRF, smFRET set-up); biotinTEG-117N4-ATTO 647N nucleosomes incubated with 25 nM SWR1C and tethered on a streptavidin-coated slide; 50 nM Cy3B-labeled H2A.Z-H2B dimer, 50 nM Chz1, 200 uM ATP, 10 nM 77N0 nucleosome in solution; room temperature; 5 min of acquisition
[5] = target: H2A.Z nucleosomal product with SWR1C (tethered biotinTEG-117N4-ATTO 647N nucleosome after dimer exchange) (S. cerevisiae | not stated (X. laevis H3.1 or H. sapiens H3.2 C110A made) | X. laevis | yeast (endogenous in the FLAG-tagged Swr1 yeast strain)) (UniProt Q12692); test: single-molecule fluorescence colocalisation (TIRF, smFRET set-up); tethered biotinTEG-117N4-ATTO 647N, Cy3B-labeled H2A nucleosome with 30 nM SWR1C, 70 nM H2A.Z-H2B dimer, 70 nM Chz1; 0.5 uM ATP; time from the end of eviction (loss of FRET) to the loss of the Cy3B signal, Kaplan-Meier half-life; room temperature
[6] = target: H2A.Z nucleosomal product with SWR1C (tethered biotinTEG-117N4-ATTO 647N nucleosome after dimer exchange) (S. cerevisiae | not stated (X. laevis H3.1 or H. sapiens H3.2 C110A made) | X. laevis | yeast (endogenous in the FLAG-tagged Swr1 yeast strain)) (UniProt Q12692); test: single-molecule fluorescence colocalisation (TIRF, smFRET set-up); as a6 but with 100 uM ATP
[7] = target: H2A nucleosome (77N4-ATTO 647N nucleosome) (S. cerevisiae | not stated (X. laevis H3.1 or H. sapiens H3.2 C110A made) | X. laevis) (UniProt P04911); test: fluorescence polarisation; as a1 but with 1 mM AMP-PNP; apparent Kd
[8] = target: H2A nucleosome (77N4-ATTO 647N nucleosome) (S. cerevisiae | not stated (X. laevis H3.1 or H. sapiens H3.2 C110A made) | X. laevis) (UniProt P04911); test: fluorescence polarisation; as a1 but with 1 mM ATP; apparent Kd
[9] = target: H2A nucleosome (77N4-ATTO 647N nucleosome) (S. cerevisiae | not stated (X. laevis H3.1 or H. sapiens H3.2 C110A made) | X. laevis) (UniProt P04911); test: fluorescence polarisation; 0-250 nM SWR1C titrated to 10 nM 77N4-ATTO 647N nucleosome, no nucleotide; 25 mM HEPES-KOH pH 7.6, 70 mM KCl, 0.2 mM EDTA, 5 mM MgCl2, 1 mM DTT, 0.1 mg/mL BSA; 20 min, room temperature; quadratic binding equation, global fit; apparent Kd
[10] = target: H2A.Z nucleosome (77N4-ATTO 647N nucleosome) (S. cerevisiae | not stated (X. laevis H3.1 or H. sapiens H3.2 C110A made) | X. laevis) (UniProt Q12692); test: as above
[11] = target: H2A nucleosome (77N4-ATTO 647N nucleosome) (S. cerevisiae | not stated (X. laevis H3.1 or H. sapiens H3.2 C110A made) | X. laevis) (UniProt P04911); test: fluorescence polarisation; as a1 but with 1 mM ADP; apparent Kd

## 77N4 H2A nucleosome (ATTO 647N)
[1]; 1 mM ADP
  Kd: 21 nM
[1]; 1 mM AMP-PNP
  Kd: 14 nM
[1]; 1 mM ATP
  Kd: 31 nM
[1]; no nucleotide (apo), 5 replicates
  Kd: 12 nM

## 77N4 H2A.Z nucleosome (ATTO 647N)
[1]; no nucleotide (apo)
  Kd: 25 nM

## Nc1ncnc2c1ncn2[C@@H]1O[C@H](COP(=O)(O)OP(=O)(O)O)[C@@H](O)[C@H]1O [ADP]
SWR1C [2]
  fluorescence polarization of SWR1C binding to labelled H2A nucleosome with added: a decrease in binding was also observed with ADP

## Nc1ncnc2c1ncn2[C@@H]1O[C@H](COP(=O)(O)OP(=O)(O)OP(=O)(O)O)[C@@H](O)[C@H]1O [ATP]
SWR1C [3]
  single-molecule FRET of H2A/H2B eviction from immobilised nucleosomes: Priming is ATP-sensitive, as the duration of the priming phase (tprime) decreased with increasing ATP concentration

## Cy3B-H2A.Z/H2B dimer (from UniProt P02293 5-131) (complex)
[4]
  mean lifetime of the bound state: 34 s
  percent of nucleosomes bound within 10 s: 50%
  percent of nucleosomes that bound at least one dimer in 5 min: 89%

## Cy3B-labeled H2A/H2B dimer (from UniProt P02293 5-131) (complex)
[5]
  half-life of release (t release): 3.65 min
[6]
  half-life of release (t release): 1.6 min

## SWR1C (from UniProt Q05471 1-1514; P38326 1-303; Q12509 1-438; Q03433 1-280; P31376 1-625) (complex)
[7]
  Kd: 14 nM
[8]
  Kd: 31 nM
[9]
  Kd: 12 nM
[10]
  Kd: 25 nM
[11]
  Kd: 21 nM
